Assay results from patent publication US20230322930A1, “USE OF AN ANTI-PD-1 ANTIBODY AND A CYTOTOXIC ANTICANCER DRUG IN TREATMENT OF NON-SMALL CELL LUNG CANCER” (SHANGHAI JUNSHI BIOSCIENCES CO., LTD., priority 2020, published 2023).

Test system: EGFR+NSCLC patients
Experiment: Phase II clinical trial, safety study (treatment-related adverse effects)
Conditions: with pemetrexed + carboplatin; n = 40

Question: Which “Elevated glutamyltransferase (TRAE), incidence of grade 3-5” value does the source give for “toripalimab: anti-PD-1 humanized IgG4 mAb with light and heavy chains of SEQ ID NOs: 9 and 10; described in WO 2014206107” here?
Answer: 0%

Question: What about the “Elevated glutamyltransferase (TRAE), total incidence” value of the same substance?
Answer: (10.0) %

Question: And the “Influenza and other diseases (TRAE), incidence of grade 3-5” value?
Answer: 0%

Question: And the “Influenza and other diseases (TRAE), total incidence” value?
Answer: (10.0) %

Question: And the “Leukopenia (TRAE), incidence of grade 3-5” value?
Answer: (22.5) %

Question: What about the “Urinary tract infection (TRAE), incidence of grade 3-5” value of the same substance?
Answer: 0%

Question: What about the “Urinary tract infection (TRAE), total incidence” value of the same substance?
Answer: (12.5) %
